# Source: the supplement of paper PMC7877785
# ± gives the uncertainty stated by the source.
# Experiment: self-splicing fitness, log relative to wild type (ln ratio); higher = more splicing; Tetrahymena group I intron in knt gene, E. coli kanamycin selection, DiMSum; sequences stand for … in CUCUCU…GGAGGGAAAAGUUAUCAGGCAUGCACCUGGUAGCUAGUCUUUAAACCAAUAGAUUGCAUCGGUUUAAAAGGCAAGACCGUCAAAUUGCGGGAAAGGGGUCAACAGCCGUUCAGUACCAAGUCUCAGGGGAAACUUUGAGAUGGCCUUGCAAAGGGUAUGGUAAUAAGCUGACGGACAUGGUCCUAACCACGCAGCCAAGUCCUAAGUCAACAGAUCUUCUGUUGAUAUGGAUGCAGUUCACAGACUAAAUGUCGGUCGGGGAAGAUGUAUUCUUCUCAUAAGAUAUAGUCGGACCUCUCCUUAAUGGGAGCUAGCGGAUGAAGUGAUGCAACACUGGAGCCGCUGGGAACUAAUUUGUAUGCGAAAGUAUAUUGAUUAGUUUUGGAGUACUCGUGGUCG
# Procedure, shortened: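 Fitness was computed with DiMSum as the error-weighted combination of replicate fold changes, kanamycin versus none, each normalised to wild type. The library randomised all eight intron nucleotides of the P1ex region, with the intron placed in the knt kanamycin-resistance gene on pET-22b(+) in E. coli BL21(DE3). Six replicate transformations were grown overnight at 37°C or 30°C on LB agar with or without 25 μg/mL kanamycin, plus 100 μg/mL carbenicillin, 50 μM IPTG and 0.2% rhamnose. Pooled colonies were amplicon-sequenced on an Illumina HiSeq 2500.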
Sequence,self-splicing fitness (ln) (30 °C),self-splicing fitness (ln) (37 °C)
GAAAAGCAAUAUUACGUGGC,-3.57 ± 0.2,-2.06 ± 0.16
UUAUAGCAAUAUUACGUGAC,-3.22 ± 0.22,-0.826 ± 0.22
AAGUAGCAAUAUUACGGAAU,-3.66 ± 0.2,-1.52 ± 0.16
CUAUAGCAAUAUUACGCGAU,-2.31 ± 0.12,-1.5 ± 0.12
ACACAGCAAUAUUACGGACA,-1.63 ± 0.095,-1.04 ± 0.089
UCGGAGCAAUAUUACGACGG,-3.56 ± 0.43,-1.36 ± 0.29
CUCGAGCAAUAUUACGAUAC,–,-2.64 ± 0.36
GCCUAGCAAUAUUACGCAUC,-0.219 ± 0.066,0.571 ± 0.091
AGUAAGCAAUAUUACGAGCU,-2.23 ± 0.14,-1.98 ± 0.13
GCGGAGCAAUAUUACGGGCU,-2.38 ± 0.36,–
UAAAAGCAAUAUUACGUGCG,-0.348 ± 0.07,-0.119 ± 0.09
GUGUAGCAAUAUUACGAGUG,-2.83 ± 0.43,–
GGGCAGCAAUAUUACGCCGC,-3.33 ± 0.22,-2.27 ± 0.31
AUGCAGCAAUAUUACGCGUA,-2.09 ± 0.18,-1.71 ± 0.2
ACGCAGCAAUAUUACGUAGG,-2.12 ± 0.096,-2.86 ± 0.13
GCGCAGCAAUAUUACGUUAC,-2.71 ± 0.14,-1.12 ± 0.14
AACUAGCAAUAUUACGUGCA,-0.72 ± 0.054,-0.578 ± 0.065
UGCUAGCAAUAUUACGCUUA,-1.31 ± 0.11,-0.517 ± 0.12
UAUCAGCAAUAUUACGUCAG,-1.42 ± 0.093,-0.143 ± 0.11
AUUUAGCAAUAUUACGCGCA,-0.312 ± 0.13,-0.00399 ± 0.16

Sequence,self-splicing fitness (ln) (30 °C),self-splicing fitness (ln) (37 °C)
CACGAGCAAUAUUACGUUGC,-3.91 ± 0.24,-2.14 ± 0.21
UGGUAGCAAUAUUACGAGGC,-2.16 ± 0.28,-2.19 ± 0.28
GUAUAGCAAUAUUACGGAAG,–,-1.92 ± 0.27
CAUCAGCAAUAUUACGGAUU,-0.959 ± 0.062,-0.143 ± 0.077
CCUUAGCAAUAUUACGGUCG,-0.919 ± 0.092,-0.755 ± 0.097
CAAAAGCAAUAUUACGUUGA,-3.14 ± 0.14,-2.32 ± 0.12
UCUGAGCAAUAUUACGAUGA,-0.887 ± 0.12,0.0454 ± 0.18
UUGCAGCAAUAUUACGAAAU,-2.39 ± 0.22,-2.33 ± 0.39
CGACAGCAAUAUUACGAGGG,-3.67 ± 0.13,-2.99 ± 0.15
UUAGAGCAAUAUUACGGAUA,-2.47 ± 0.31,–
GUGUAGCAAUAUUACGUAAU,-1.75 ± 0.12,-0.371 ± 0.12
UUUAAGCAAUAUUACGCACU,-0.382 ± 0.1,-0.128 ± 0.12
CAUCAGCAAUAUUACGAACG,0.463 ± 0.11,0.656 ± 0.11
ACGCAGCAAUAUUACGCAAG,-2.25 ± 0.081,-0.638 ± 0.091
AAUCAGCAAUAUUACGCGCA,-0.8 ± 0.081,-0.264 ± 0.12
GAUAAGCAAUAUUACGCGCG,-0.359 ± 0.096,0.119 ± 0.15
GGAUAGCAAUAUUACGCGGG,-3.3 ± 0.17,-0.931 ± 0.11
AGAGAGCAAUAUUACGCAGG,-2.58 ± 0.13,-3.21 ± 0.33
GCCGAGCAAUAUUACGGCCA,-1.6 ± 0.11,-1.52 ± 0.12
